Measured values published in US20240025969A1, “NPC1 MONOBODIES AND MONOBODY CONJUGATES THEREOF” (NEW YORK UNIVERSITY, priority 2020, published 2024).
Entries after “also recorded” stand apart in the source; their conditions may differ.

T1: NPC1 (Homo sapiens, UniProt O15118)
T1 construct: endogenous in cells; host or cells: DLD-1 (mutant KRas colorectal cancer cells)
T1 sequence (O15118 23-1278): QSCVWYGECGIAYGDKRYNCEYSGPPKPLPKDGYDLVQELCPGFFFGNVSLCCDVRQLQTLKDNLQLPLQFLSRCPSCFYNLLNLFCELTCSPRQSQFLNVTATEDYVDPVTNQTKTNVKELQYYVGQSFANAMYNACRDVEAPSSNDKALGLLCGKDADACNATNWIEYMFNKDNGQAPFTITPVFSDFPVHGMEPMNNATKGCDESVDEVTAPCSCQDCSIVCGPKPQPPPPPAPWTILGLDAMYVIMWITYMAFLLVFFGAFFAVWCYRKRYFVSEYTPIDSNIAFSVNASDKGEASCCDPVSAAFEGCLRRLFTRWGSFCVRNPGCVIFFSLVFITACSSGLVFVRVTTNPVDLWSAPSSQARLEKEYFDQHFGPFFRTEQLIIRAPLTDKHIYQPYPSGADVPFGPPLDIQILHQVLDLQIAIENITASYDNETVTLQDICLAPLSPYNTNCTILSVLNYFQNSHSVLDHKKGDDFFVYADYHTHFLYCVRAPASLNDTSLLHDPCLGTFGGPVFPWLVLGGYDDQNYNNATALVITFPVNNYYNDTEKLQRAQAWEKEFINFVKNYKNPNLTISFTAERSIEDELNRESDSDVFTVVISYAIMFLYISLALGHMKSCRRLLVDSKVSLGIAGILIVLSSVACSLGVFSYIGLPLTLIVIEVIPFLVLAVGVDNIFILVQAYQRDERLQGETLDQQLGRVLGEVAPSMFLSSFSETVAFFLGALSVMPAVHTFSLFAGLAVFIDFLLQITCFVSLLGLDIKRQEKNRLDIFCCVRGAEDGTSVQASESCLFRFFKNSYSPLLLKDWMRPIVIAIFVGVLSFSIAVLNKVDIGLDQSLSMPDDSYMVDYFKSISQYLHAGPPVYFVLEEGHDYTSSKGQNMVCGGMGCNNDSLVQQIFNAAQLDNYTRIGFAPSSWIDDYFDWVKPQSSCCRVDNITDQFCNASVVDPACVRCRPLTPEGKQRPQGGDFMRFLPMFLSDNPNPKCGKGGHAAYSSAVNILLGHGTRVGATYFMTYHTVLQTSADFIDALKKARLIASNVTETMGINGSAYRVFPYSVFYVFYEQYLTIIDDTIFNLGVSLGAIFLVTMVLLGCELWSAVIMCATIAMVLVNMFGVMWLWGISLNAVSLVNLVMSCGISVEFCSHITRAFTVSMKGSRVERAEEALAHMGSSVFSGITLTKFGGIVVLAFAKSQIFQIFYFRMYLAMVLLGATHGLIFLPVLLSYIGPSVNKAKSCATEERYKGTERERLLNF

B1: N23: NPC1-targeting monobody clone N23 (SEQ ID NO: 36) (protein)
chain: VSSVPTKLEVVAATPTSLLISWDASSSSVSYYRITYGETGGPFWHYQTFTVPGSKSTATISGLKPGVDYTITVYTYSSSMHFSSSPISINYRT
B2: N34: NPC1-targeting monobody clone N34 (SEQ ID NO: 40) (protein)
chain: VSSVPTKLEVVAATPTSLLISWDAPAVTVSYYVITYGETGGHYWHWQTFKVPGSKSTATISGLKPGVDYTITVYAYYGQMRYYSPISINYRT

Experiments:
ERK = ERK hyperactivation in NPC1 knockdown cells, EGFR inhibition; assay type: cell-based; conditions: short-term EGFR inhibition
PDAC MIA PaCa3 cells = assay: Calcein endosomal release assay, with or without nanoparticle delivery vehicle; assay type: cell-based; conditions: for endosomal release of calcein: calcein alone (PBS) or packaged in pegylated nanoparticle delivery vehicles (90 nm Nano), both conditions; for calcein fluorescence (endosomal release of calcein): co-delivery with calcein (FIG. 17)
From the text: Calcein is a membrane impermeable, fluid phase uptake marker that is semi-quenched when in close proximity with other calcein molecules in vesicular compartments, but with intracellular release and molecule diffusion, dequenching causes an increase in cellular fluorescence.
FIGS. 18A-18B show an NCP1 monobody mediated increase in endosomal calcein release that was further improved in the presence of a nanoparticle delivery vehicle. FIG. 18A is a panel of immunocytochemical images of PDAC MIA PaCa3 cells treated with calcein alone (PBS) or packaged in a pegylated nanoparticle delivery vehicles (90 nm Nano) (images of top row). […] FIG. 18B is a graph quantifying calcein fluorescence in each of the tested conditions.
Endosome escape was again observed in a small molecule assay (FIG. 17). Calcein is a membrane impermeable, fluid phase uptake marker that is semi-quenched when in close proximity with other calcein molecules in vesicular compartments, but with intracellular release and molecule diffusion, dequenching causes an increase in cellular fluorescence. […] The NPC1 targeting monobodies have been established to induce small molecule, biologic, and nanoparticle escape.

HeLa cells = assay: LC3B accumulation in macropinocytosis negative wild-type KRas HeLa cells; assay type: cell-based
Description: (§1) FIGS. 8A-8B show mutant KRas-dependent effects of NPC1-targeting monobodies. N23 and N34 clones were analyzed for effect on macropinocytosis negative wild-type KRas HeLa cells (FIG. 8A) versus macropinocytosis-positive mutant KRas […] cells (FIG. 8B). FN is a non-targeting monobody control. Arrows indicate LC3B accumulation.

[1] = test system: Mutant Ras PDAC MIA PaCa-2 cells; assay: Split GFP assay for endosomal escape of GFP11; assay type: cell-based; conditions: MIA PaCa-2 cells expressing GFP1-10; 600 mM GFP11 with 1 mM monobody for 24 hrs
Description: Mutant Ras PDAC MIA PaCa-2 cells stably expressing cytoplasmic GFP1-10 were treated with 600 mM GFP11 with or without 1 mM of the N23 or N34 NCP1 monobody for 24 hrs.
A split GFP assay was developed to measure endosomal escape of proteins. Mutant Ras PDAC MIA PaCa-2 cells were stably expressed with GFP1-10, which is missing the 11β domain needed for fluorescence, making endosomal escape of GFP110 necessary for a positive signal. NPC1 targeting and control monobodies were co-delivered with the free GFP110 domain.

NPC1 = target: T1, NPC1; assay: Screen for NPC1-inhibitory monobodies: intracellular cholesterol trafficking, filipin; assay type: cell-based; conditions: for inhibition of NPC1 by endosomal accumulation of cholesterol: DLD1 cells (Ras mutation, colon), cholesterol measured by filipin; for cholesterol entrapment / vesicle disruption: DLD1 cells, preliminary data; for cholesterol entrapment: filipin
From the text: FIG. 7A is a graph showing the effect of monobody clones on intracellular cholesterol trafficking. FIG. 7B are representative cell images from FIG. 7A. FIG. 7C is a heat map representation of cholesterol localization from FIG. 7B.
A major benefit of monobodies over antibodies is the lower cost in manufacturing. However, if monobodies need to be re-folded or aggregate during production, the cost of manufacturing can exceed that of antibodies. […] Utilizing both the imaging-based and biochemical approaches, it was confirmed that the monobodies described herein inhibit NPC1 in cell culture. […] FIG. 7B DLD1 cells (Ras mutation, colon) were treated with the top monobody hits and cholesterol was measured by filipin.

HCT-116 cell = HCT-116 cell proliferation, Syto60 assay; assay type: cell-based; conditions: Syto60 assay after 3 days of treatment, n=3
Description: Proliferation was analyzed by Syto60 assay after 3 days of treatment. n=3

HeLa KRasV12 cells = assay: LC3B accumulation in macropinocytosis-positive mutant KRas HeLa cells; assay type: cell-based
Description: as §1

xenografts = assay: Intratumor injection of monobody into xenografts; assay type: in vivo
Description: FIG. 11 show the in vivo cholesterol alterations with NPC1-targeting monobody (N34) versus non-targeting control (FN).
Monobody (1 uM; 50ul volume) was intratumorally injected two hours prior to tumor extraction.
Monobody (1 uM; 50ul volume) was intratumorally injected two hours prior to tumor extraction. Images were taken of serial sections from FIG. 13B.
(§2) Confirmation that uptake is dependent on macropinocytosis was confirmed in CRC cell lines. […] It was also observed that upon NPC1 knockdown in vitro, there is ERK hyperactivation (FIG. 13A). This observation was confirmed using the N34 monobody in vivo (FIG. 13B).

DLD-1 = assay: Monobody uptake in mutant KRas CRC cells DLD-1; assay type: cell-based; conditions: mutant KRas CRC cells DLD-1, macropinocytosis positive
From the text: (§3) FIGS. 10A-10B show monobody selectivity in colorectal DLD-1 and HCT-116 cancer cells (CRC).
as §2

HCT-116 [2] = assay: Monobody uptake in mutant KRas CRC cells HCT-116; assay type: cell-based; conditions: mutant KRas CRC cells HCT-116, macropinocytosis positive
From the text: as §3, §2

HCA7 = assay: Monobody uptake in wild-type KRas CRC cells; assay type: cell-based; conditions: macropinocytosis negative
From the text: as §3, §2

HCT-116 [3] = assay: LC3B accumulation in HCT-116 cells; assay type: cell-based
From the text: as §3, §2

[4] = N34-positive vs N34-negative areas, 1 uM, 50ul intratumorally, 2 hours post-injection
[5] = N34-positive vs N34-negative tumor, 1 uM, 50ul intratumorally two hours prior to tumor extraction

Molecule	ERK hyper-activation (ERK)	endosomal release of calcein (PDAC MIA PaCa3 cells)	calcein fluorescence (endosomal release of calcein) (PDAC MIA PaCa3 cells)	LC3B accumulation (HeLa cells)	fluorescence (endosomal escape of GFP11) [1]	inhibition of NPC1 by endosomal accumulation of cholesterol (NPC1)	cholesterol entrapment (NPC1)	vesicle disruption (NPC1)	CRC cell proliferation (HCT-116 cell)	LC3B accumulation (HeLa KRasV12 cells)	LC3B accumulation in xenograft (xenografts; [4])	cholesterol accumulation in xenograft (xenografts; [4])	EGFR phosphorylation (activation) in tumor (xenografts; [5])	ERK phosphorylation (hyperactivation) in tumor (xenografts; [5])	cholesterol accumulation in tumor cells (xenografts; N34 positive tumor cells compared to non-targeting control monobody (FN))	uptake in CK8-positive tumor cells (xenografts; intratumor injection into xenografts)	uptake of monobody (DLD-1)	uptake of monobody (HCT-116 [2])	uptake of monobody (HCA7)	accumulation of LC3B (HCT-116 [3])
COc1cc2ncnc(Nc3ccc(F)c(Cl)c3)c2cc1NC(=O)/C=C/CN1CCCCC1 [dacomitinib]	blocked ERK hyper-activation																			
B1		enhanced endosomal release of calcein	increasing calcein fluorescence	did not induce LC3B accumulation	observed	greatest inhibition of NPC1	improved cholesterol entrapment	induce vesicle disruption	no significant inhibition	did show an effect										
B2		enhanced endosomal release of calcein	increasing calcein fluorescence	did not induce LC3B accumulation	observed	greatest inhibition of NPC1	improved cholesterol entrapment	induce vesicle disruption	growth inhibitory effect	did show an effect	robust cholesterol and LC3B accumulation; also recorded: induces cholesterol and LC3B accumulation	robust cholesterol and LC3B accumulation; also recorded: induces cholesterol and LC3B accumulation	EGFR activation was seen; also recorded: induces EGFR phosphorylation	confirmed; also recorded: induces ERK phosphorylation	displayed cholesterol accumulation	showed uptake	efficiently internalize	efficiently internalize	fail to uptake	dose-dependent accumulation of LC3B
